Earlier results on one substance are cited in PMC5896957.

In this data set the target is exon junction complex (Homo sapiens) (UniProt P38919).
UniProt P38919, sequence (P38919 2-411, chain 1 of 3): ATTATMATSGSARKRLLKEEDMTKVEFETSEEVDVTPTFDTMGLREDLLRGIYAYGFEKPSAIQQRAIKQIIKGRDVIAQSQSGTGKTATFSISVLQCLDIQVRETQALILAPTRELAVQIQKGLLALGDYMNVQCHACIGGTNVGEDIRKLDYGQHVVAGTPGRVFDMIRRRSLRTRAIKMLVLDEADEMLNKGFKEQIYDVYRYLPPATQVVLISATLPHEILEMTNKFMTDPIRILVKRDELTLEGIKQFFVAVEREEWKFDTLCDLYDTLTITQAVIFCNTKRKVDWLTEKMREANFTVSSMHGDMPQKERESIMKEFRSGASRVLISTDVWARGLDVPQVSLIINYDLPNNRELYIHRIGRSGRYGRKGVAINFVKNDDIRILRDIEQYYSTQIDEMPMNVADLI
UniProt P38919, sequence (B1ARP8 whole entry, chain 2 of 3, further chain): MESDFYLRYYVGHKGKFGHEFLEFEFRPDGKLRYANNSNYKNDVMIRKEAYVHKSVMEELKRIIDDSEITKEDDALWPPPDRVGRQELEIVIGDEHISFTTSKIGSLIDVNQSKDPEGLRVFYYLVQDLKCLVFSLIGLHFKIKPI
UniProt P38919, sequence (O15234 whole entry, chain 3 of 3, further chain): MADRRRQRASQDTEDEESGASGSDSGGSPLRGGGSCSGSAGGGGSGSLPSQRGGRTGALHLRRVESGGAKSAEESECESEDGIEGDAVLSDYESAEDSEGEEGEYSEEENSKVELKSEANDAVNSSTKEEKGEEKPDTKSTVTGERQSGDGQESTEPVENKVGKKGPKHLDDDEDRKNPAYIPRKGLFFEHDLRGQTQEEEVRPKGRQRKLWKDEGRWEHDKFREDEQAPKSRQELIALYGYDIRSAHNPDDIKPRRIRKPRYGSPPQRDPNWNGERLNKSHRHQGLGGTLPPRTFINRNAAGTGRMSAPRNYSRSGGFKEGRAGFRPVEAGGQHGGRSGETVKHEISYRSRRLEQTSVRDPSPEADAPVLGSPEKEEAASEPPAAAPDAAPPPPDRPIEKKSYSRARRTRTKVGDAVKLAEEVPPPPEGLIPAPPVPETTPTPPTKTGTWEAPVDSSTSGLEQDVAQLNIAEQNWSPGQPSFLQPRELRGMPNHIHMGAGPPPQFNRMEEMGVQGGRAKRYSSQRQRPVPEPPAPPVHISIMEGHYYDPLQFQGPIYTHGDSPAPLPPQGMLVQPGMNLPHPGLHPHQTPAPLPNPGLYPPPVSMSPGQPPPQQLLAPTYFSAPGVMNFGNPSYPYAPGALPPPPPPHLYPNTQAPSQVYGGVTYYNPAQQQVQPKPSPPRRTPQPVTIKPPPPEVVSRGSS

For the substance UPF3B peptide (from UniProt Q9BZI7), the Kd was 10 µM.
